{"source": "patent US20100329990", "biological_target": "TTE (TBF-EGFP fusion with the TEV protease recognition sequence ENLYFQG, flanked by 4 glycines on each side, between TBF and EGFP)"}
{"protein": "TEV protease (Gibco-Life Technologies) (protein) GESLFKGPRDYNPISSTICHLTNESDGHTTSLYGIGFGPFIITNKHLFRRNNGTLLVQSLHGVFKVKNTTTLQQHLIDGRDMIIIRMPKDFPPFPQKLKFREPQREERICLVTTNFQTKSMSSMVSDTSCTFPSSDGIFWKHWIQTKDGQCGSPLVSTRDGFIVGIHSASNFTNTNNYFTSVPKNFMELLTNQEAQQWVSGWRLNADSVLWGGHKVFMSKPEEPFQPVKEATQLMNELVYSQ", "values": [{"measurement": "cleavage of TTE by TEV protease, followed by time-gated emission spectra (loss of Tb3+ to EGFP energy transfer)", "result": "The absence of the chromophore peak at 510 nm indicates that the energy transfer system from Tb^3+ to the chromophore is diminished."}]}
